Assay results published in patent US20210292396A1.
Numbering of substitutions follows the chain as printed.

Legend:
Test in all cases: cell-based or functional assay
[1] = target: Env of HIV isolate QH0692.42 (clade B) (HIV)
[2] = target: Env of HIV isolate 0439.v5.c1 (clade A) (HIV)
[3] = target: Env of HIV isolate JRFL.JB (clade B) (HIV)
[4] = target: Env of HIV isolate 3873.v1.c24 (clade C) (HIV)
[5] = target: HIV Env of isolate CAP256.206.C9 (HIV)
[6] = target: HIV Env of isolate 16845-2.22 (HIV)
[7] = target: HIV Env of isolate X1254.c3 (HIV)
[8] = target: HIV Env of isolate 57128.vrc15 (HIV)
[9] = target: Env of HIV isolate 6785.v5.c14 (clade C) (HIV)
[10] = target: HIV Env of isolate ZM215.8 (HIV)
[11] = target: HIV Env of isolate 3016.v5.c45 (HIV)
[12] = target: Env of HIV isolate RW020.2 (clade A) (HIV)
[13] = target: Env of HIV isolate 620345.c1 (clade AE) (HIV)
[14] = target: Env of HIV isolate BR07.DG (clade B) (HIV)
[15] = target: Env of HIV isolate Q769.d22 (clade A) (HIV)
[16] = target: HIV Env of isolate 001428-2.42 (HIV)
[17] = target: HIV Env of isolate 3817.v2.c59 (HIV)
[18] = target: Env of HIV isolate 271-11 (clade AG) (HIV)
[19] = target: Env of HIV isolate TRO.11 (clade B) (HIV)
[20] = target: Env of HIV isolate 191821.E6.1 (clade D) (HIV)
[21] = target: HIV Env of isolate 25710-2.43 (HIV)
[22] = target: Env of HIV isolate CNE55 (clade AE) (HIV)
[23] = target: Env of HIV isolate Q842.d12 (clade A) (HIV)
[24] = target: HIV Env of isolate ZM53.12 (HIV)
[25] = target: HIV Env of isolate ZM135.10a (HIV)
[26] = target: HIV Env of isolate CAP210.E8 (HIV)
[27] = target: Env of HIV isolate CAP45.G3 (clade C) (HIV)
[28] = target: HIV Env of isolate SO18.18 (HIV)
[29] = target: Env of HIV isolate 0077.v1.c16 (clade C) (HIV)
[30] = target: Env of HIV isolate 269-12 (clade AG) (HIV)
[31] = target: Env of HIV isolate T251-18 (clade AG) (HIV)
[32] = target: Env of HIV isolate T266-60 (clade AG) (HIV)
[33] = target: HIV Env of isolate CE703010217.B6 (HIV)
[34] = target: Env of HIV isolate 0921.v2.c14 (clade C) (HIV)
[35] = target: Env of HIV isolate MS208.A1 (clade A) (HIV)
[36] = target: Env of HIV isolate 6540.v4.c1 (clade AC) (HIV)
[37] = target: HIV Env of isolate CNE20 (HIV)
[38] = target: HIV Env of isolate CNE7 (HIV)
[39] = target: Env of HIV isolate 398-F1.F6.20 (clade A) (HIV)
[40] = target: Env of HIV isolate 96ZM651.02 (clade C) (HIV)
[41] = target: Env of HIV isolate DU123.06 (clade C) (HIV)
[42] = target: HIV Env of isolate BR025.9 (HIV)
[43] = target: Env of HIV isolate QH0515.01 (clade B) (HIV)
[44] = target: Env of HIV isolate UG024.2 (clade D) (HIV)
[45] = target: Env of HIV isolate 6838.v1.c35 (clade C) (HIV)
[46] = target: Env of HIV isolate CNE31 (clade C) (HIV)
[47] = target: Env of HIV isolate ZM249.1 (clade C) (HIV)
[48] = target: Env of HIV isolate 25925-2.22 (clade C) (HIV)
[49] = target: Env of HIV isolate 3988.25 (clade B) (HIV)
[50] = target: Env of HIV isolate MN.3 (clade B) (HIV)

B1: ePGT121.18.17 (ePGT121.18.H17 VH and ePGT121.17.L1 VL) (antibody, V domains shown)
VH: QMQLQESGPGLVKPGETLSLTCSVSGASISSSYWSWLRETPGKGLEWIGYTHHSGDTNYAPSLKSRVTIGLDPSKNQVSLSLTSVTAADTAVYYCARTLHGRRIYGVVAFNEYYTYFYWPTWGKGTQVTVSS
VL: SDISVAPGETVRITCGGESIGSRAVQWYQHRPGQAPRLIIYNNQDRPPGIPERFSGSPDIDFGTTATLTISNVEAGDEATYYCHIWDSRRPTNWELGPGTTLTVL
IC50, pseudovirus neutralization [1]: 0.035 µg/mL | IC50, pseudovirus neutralization [2]: > 50 µg/mL | IC50, pseudovirus neutralization [3]: 0.011 µg/mL | IC50, pseudovirus neutralization [4]: 0.011 µg/mL | IC80, pseudovirus neutralization [5]: 0.009 µg/mL | IC80, pseudovirus neutralization [6]: 0.629 µg/mL | IC80, pseudovirus neutralization [7]: 0.015 µg/mL | IC80, pseudovirus neutralization [8]: 0.038 µg/mL | IC50, pseudovirus neutralization [9]: 0.005 µg/mL | IC80, pseudovirus neutralization [10]: 0.048 µg/mL | IC80, pseudovirus neutralization [11]: > 50 µg/mL | IC50, pseudovirus neutralization [12]: 0.003 µg/mL | IC50, pseudovirus neutralization [13]: > 50 µg/mL | IC50, pseudovirus neutralization [14]: 0.008 µg/mL | IC50, pseudovirus neutralization [15]: > 50 µg/mL | IC80, pseudovirus neutralization [16]: 0.008 µg/mL | IC80, pseudovirus neutralization [17]: 17.9 µg/mL | IC50, pseudovirus neutralization [18]: > 50 µg/mL | IC50, pseudovirus neutralization [19]: 0.005 µg/mL | IC50, pseudovirus neutralization [20]: 0.104 µg/mL | IC80, pseudovirus neutralization [21]: 0.026 µg/mL | IC50, pseudovirus neutralization [22]: > 50 µg/mL | IC50, pseudovirus neutralization [23]: 0.007 µg/mL | IC80, pseudovirus neutralization [24]: 0.079 µg/mL | IC80, pseudovirus neutralization [25]: 0.78 µg/mL | IC80, pseudovirus neutralization [26]: 0.645 µg/mL | IC50, pseudovirus neutralization [27]: 8.91 µg/mL | IC80, pseudovirus neutralization [28]: 0.011 µg/mL | IC50, pseudovirus neutralization [29]: > 50 µg/mL | IC50, pseudovirus neutralization [30]: 0.01 µg/mL | IC50, pseudovirus neutralization [31]: 0.041 µg/mL | IC50, pseudovirus neutralization [32]: 0.014 µg/mL | IC80, pseudovirus neutralization [33]: 0.016 µg/mL | IC50, pseudovirus neutralization [34]: 0.189 µg/mL | IC50, pseudovirus neutralization [35]: > 50 µg/mL | IC50, pseudovirus neutralization [36]: > 50 µg/mL | IC80, pseudovirus neutralization [37]: 0.005 µg/mL | IC80, pseudovirus neutralization [38]: 0.017 µg/mL | IC50, pseudovirus neutralization [39]: 0.005 µg/mL | IC50, pseudovirus neutralization [40]: 0.003 µg/mL | IC50, pseudovirus neutralization [41]: 0.004 µg/mL | IC80, pseudovirus neutralization [42]: 0.008 µg/mL | IC50, pseudovirus neutralization [43]: 0.035 µg/mL | IC50, pseudovirus neutralization [44]: 0.429 µg/mL | IC50, pseudovirus neutralization [45]: 0.576 µg/mL | IC50, pseudovirus neutralization [46]: 0.089 µg/mL | IC50, pseudovirus neutralization [47]: 0.332 µg/mL | IC50, pseudovirus neutralization [48]: 0.011 µg/mL | IC50, pseudovirus neutralization [49]: 0.004 µg/mL | IC50, pseudovirus neutralization [50]: 0.004 µg/mL

B2: ePGT121.15 (ePGT121.15.H6 VH and ePGT121.15.L1 VL) (antibody, V domains shown)
VH: B1 VH with T68H, I69L, D72H, Y113F, Y114F, P120E, T121V
VL: B1 VL with T14S, P32A, R37K, S71T, E95V, L96F, P98G
IC50, pseudovirus neutralization [1]: 0.015 µg/mL | IC50, pseudovirus neutralization [2]: 4.72 µg/mL | IC50, pseudovirus neutralization [3]: 0.014 µg/mL | IC50, pseudovirus neutralization [4]: 0.004 µg/mL | IC80, pseudovirus neutralization [5]: 0.006 µg/mL | IC80, pseudovirus neutralization [6]: 0.264 µg/mL | IC80, pseudovirus neutralization [7]: 0.009 µg/mL | IC80, pseudovirus neutralization [8]: 0.026 µg/mL | IC50, pseudovirus neutralization [9]: 0.004 µg/mL | IC80, pseudovirus neutralization [10]: 0.047 µg/mL | IC80, pseudovirus neutralization [11]: > 50 µg/mL | IC50, pseudovirus neutralization [12]: 0.003 µg/mL | IC50, pseudovirus neutralization [13]: > 50 µg/mL | IC50, pseudovirus neutralization [14]: 0.009 µg/mL | IC50, pseudovirus neutralization [15]: > 50 µg/mL | IC80, pseudovirus neutralization [16]: 0.005 µg/mL | IC80, pseudovirus neutralization [17]: 7.22 µg/mL | IC50, pseudovirus neutralization [18]: > 50 µg/mL | IC50, pseudovirus neutralization [19]: 0.003 µg/mL | IC50, pseudovirus neutralization [20]: 0.249 µg/mL | IC80, pseudovirus neutralization [21]: 0.021 µg/mL | IC50, pseudovirus neutralization [22]: > 50 µg/mL | IC50, pseudovirus neutralization [23]: 0.003 µg/mL | IC80, pseudovirus neutralization [24]: 0.062 µg/mL | IC80, pseudovirus neutralization [25]: 0.508 µg/mL | IC80, pseudovirus neutralization [26]: 0.268 µg/mL | IC50, pseudovirus neutralization [27]: 2.25 µg/mL | IC80, pseudovirus neutralization [28]: 0.009 µg/mL | IC50, pseudovirus neutralization [29]: > 50 µg/mL | IC50, pseudovirus neutralization [30]: 0.011 µg/mL | IC50, pseudovirus neutralization [31]: 0.056 µg/mL | IC50, pseudovirus neutralization [32]: 0.006 µg/mL | IC80, pseudovirus neutralization [33]: 0.012 µg/mL | IC50, pseudovirus neutralization [34]: 0.454 µg/mL | IC50, pseudovirus neutralization [35]: > 50 µg/mL | IC50, pseudovirus neutralization [36]: > 50 µg/mL | IC80, pseudovirus neutralization [37]: 0.005 µg/mL | IC80, pseudovirus neutralization [38]: 0.013 µg/mL | IC50, pseudovirus neutralization [39]: 0.004 µg/mL | IC50, pseudovirus neutralization [40]: 0.001 µg/mL | IC50, pseudovirus neutralization [41]: 0.003 µg/mL | IC80, pseudovirus neutralization [42]: 0.006 µg/mL | IC50, pseudovirus neutralization [43]: 0.014 µg/mL | IC50, pseudovirus neutralization [44]: 0.516 µg/mL | IC50, pseudovirus neutralization [45]: 0.234 µg/mL | IC50, pseudovirus neutralization [46]: 0.042 µg/mL | IC50, pseudovirus neutralization [47]: 0.249 µg/mL | IC50, pseudovirus neutralization [48]: 0.007 µg/mL | IC50, pseudovirus neutralization [49]: 0.004 µg/mL | IC50, pseudovirus neutralization [50]: 0.004 µg/mL
